Data taken from the supplement of paper PMC10567573.

B1: FCHO1 (parent)
chain: HLELTRKLQDLIKDVLRYGEEQLK
B2: ZNF232 (parent)
chain: HSGEKPFICKECGKAYGWCSELIR

Variants of: B1
Test: protein stability index of a GFP-peptide fusion (GPS, HEK-293T) (PSI 1-6); higher = more stable
Settings: c terminus: a fixed tail appended
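Note: lentivirally expressed fusions sorted by FACS into six bins by GFP to DsRed ratio, PSI derived from sequencing read proportions per bin multiplied by bin number.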

| Variant | protein stability index |
| --- | --- |
| VLELTRKLQDLIKDVLRYGEEQLK | 1.31 |
| KLELTRKLQDLIKDVLRYGEEQLK | 1.46 |
| WLELTRKLQDLIKDVLRYGEEQLK | 1.9 |
| YLELTRKLQDLIKDVLRYGEEQLK | 2.02 |
| FLELTRKLQDLIKDVLRYGEEQLK | 1.99 |
| ILELTRKLQDLIKDVLRYGEEQLK | 1.74 |
| PLELTRKLQDLIKDVLRYGEEQLK | 1.79 |
| RLELTRKLQDLIKDVLRYGEEQLK | 5.3 |
| ELELTRKLQDLIKDVLRYGEEQLK | 2.81 |
| LLELTRKLQDLIKDVLRYGEEQLK | 1.55 |
| DLELTRKLQDLIKDVLRYGEEQLK | 2.68 |
| NLELTRKLQDLIKDVLRYGEEQLK | 3.04 |
| GLELTRKLQDLIKDVLRYGEEQLK | 2.03 |
| TLELTRKLQDLIKDVLRYGEEQLK | 2.28 |
| QLELTRKLQDLIKDVLRYGEEQLK | 2.8 |
| SLELTRKLQDLIKDVLRYGEEQLK | 2.96 |
| MLELTRKLQDLIKDVLRYGEEQLK | 2.23 |
| HKELTRKLQDLIKDVLRYGEEQLK | 2.13 |
| HDELTRKLQDLIKDVLRYGEEQLK | 2.92 |
| HCELTRKLQDLIKDVLRYGEEQLK | 3.33 |
| HGELTRKLQDLIKDVLRYGEEQLK | 3.28 |
| HEELTRKLQDLIKDVLRYGEEQLK | 2.63 |
| HAELTRKLQDLIKDVLRYGEEQLK | 2.42 |
| HIELTRKLQDLIKDVLRYGEEQLK | 1.87 |
| HHELTRKLQDLIKDVLRYGEEQLK | 1.64 |
| HFELTRKLQDLIKDVLRYGEEQLK | 1.95 |

Variants of: B2
Test: as above
Settings: c terminus: a fixed tail appended

| Variant | protein stability index |
| --- | --- |
| HSGEKPFICKECGKAYGWCSYLIR | 2.12 |
| HSGEKPFICKECGKAYGWCSTLIR | 2.3 |
| HSGEKPFICKECGKAYGWCSLLIR | 2.2 |
| HSGEKPFICKECGKAYGWCSQLIR | 2.31 |
| HSGEKPFICKECGKAYGWCSRLIR | 1.99 |
| HSGEKPFICKECGKAYGWCSNLIR | 1.38 |
| HSGEKPFICKECGKAYGWCSVLIR | 2.84 |
| HSGEKPFICKECGKAYGWCSPLIR | 2.5 |
| HSGEKPFICKECGKAYGWCSMLIR | 2.07 |
| HSGEKPFICKECGKAYGWCSSLIR | 1.21 |
| HSGEKPFICKECGKAYGWCSWLIR | 2.11 |
| HSGEKPFICKECGKAYGWCSELID | 2.85 |
| HSGEKPFICKECGKAYGWCSELIG | 1.45 |
| HSGEKPFICKECGKAYGWCSELIC | 4.05 |
| HSGEKPFICKECGKAYGWCSELIM | 1.74 |
| HSGEKPFICKECGKAYGWCSELIF | 2.23 |
| HSGEKPFICKECGKAYGWCSELIA | 1.86 |
| HSGEKPFICKECGKAYGWCSELIV | 2.02 |
| HSGEKPFICKECGKAYGWCSELIL | 1.71 |
| HSGEKPFICKECGKAYGWCSELII | 1.99 |
| HSGEKPFICKECGKAYGWCSELIY | 1.61 |
| HSGEKPFICKECGKAYGWCSELIE | 2.33 |
| HSGEKPFICKECGKAYGWCSELIP | 2.66 |

| Variant | protein stability index |
| --- | --- |
| HSGEKPFICKECGKAYGWCSELIW | 2.09 |
| HSGEKPFICKECGKAYGWCSELIS | 2.23 |
| HSGEKPFICKECGKAYGWCSELIN | 2.03 |
| HSGEKPFICKECGKAYGWCSELIT | 2.32 |
| HSGEKPFICKECGKAYGWCSELIQ | 2.44 |
| HSGEKPFICKECGKAYGWCSELIK | 2.08 |
| HSGEKPFICKECGKAYGWCSELIH | 3.51 |
| HSGEKPFICKECGKAYGWCSELYR | 1.82 |
| HSGEKPFICKECGKAYGWCSELVR | 1.97 |
| HSGEKPFICKECGKAYGWCSELHR | 2.71 |
| HSGEKPFICKECGKAYGWCSELRR | 2 |
| HSGEKPFICKECGKAYGWCSELER | 2.24 |
| HSGEKPFICKECGKAYGWCSELPR | 2.28 |
| HSGEKPFICKECGKAYGWCSELKR | 2.45 |
| HSGEKPFICKECGKAYGWCSELWR | 2.3 |
| HSGEKPFICKECGKAYGWCSELDR | 2.5 |
| HSGEKPFICKECGKAYGWCSELMR | 1.97 |
| HSGEKPFICKECGKAYGWCSELGR | 2.09 |
| HSGEKPFICKECGKAYGWCSELSR | 1.78 |
| HSGEKPFICKECGKAYGWCSELAR | 2.04 |
| HSGEKPFICKECGKAYGWCSELCR | 3.64 |
| HSGEKPFICKECGKAYGWCSELFR | 1.98 |
| HSGEKPFICKECGKAYGWCSELQR | 2.58 |

| Variant | protein stability index |
| --- | --- |
| HSGEKPFICKECGKAYGWCSELNR | 1.97 |
| HSGEKPFICKECGKAYGWCSELTR | 1.89 |
| HSGEKPFICKECGKAYGWCSELLR | 2.31 |
| HSGEKPFICKECGKAYGWCSEDIR | 2.3 |
| HSGEKPFICKECGKAYGWCSEEIR | 2.11 |
| HSGEKPFICKECGKAYGWCSESIR | 1.92 |
| HSGEKPFICKECGKAYGWCSEAIR | 2.24 |
| HSGEKPFICKECGKAYGWCSEVIR | 2.09 |
| HSGEKPFICKECGKAYGWCSEMIR | 2.08 |
| HSGEKPFICKECGKAYGWCSEWIR | 1.67 |
| HSGEKPFICKECGKAYGWCSEGIR | 2 |
| HSGEKPFICKECGKAYGWCSEQIR | 1.65 |
| HSGEKPFICKECGKAYGWCSEHIR | 3.29 |
| HSGEKPFICKECGKAYGWCSEYIR | 2.18 |
| HSGEKPFICKECGKAYGWCSEPIR | 3.26 |
| HSGEKPFICKECGKAYGWCSEFIR | 1.94 |
| HSGEKPFICKECGKAYGWCSETIR | 1.72 |
| HSGEKPFICKECGKAYGWCSENIR | 1.81 |
| HSGEKPFICKECGKAYGWCSEIIR | 1.73 |
| HSGEKPFICKECGKAYGWCSERIR | 2.08 |
| HSGEKPFICKECGKAYGWCSEKIR | 1.96 |
| HSGEKPFICKECGKAYGWCSECIR | 4.76 |
